Results on 77 sequences are retold here after the supplement of paper PMC7877785.

The data set can be described thus: self-splicing fitness, log relative to wild type (ln ratio); higher = more splicing; Tetrahymena group I intron in knt gene, E. coli kanamycin selection, DiMSum; sequences stand for … in CUCUCU…GGAGGGAAAAGUUAUCAGGCAUGCACCUGGUAGCUAGUCUUUAAACCAAUAGAUUGCAUCGGUUUAAAAGGCAAGACCGUCAAAUUGCGGGAAAGGGGUCAACAGCCGUUCAGUACCAAGUCUCAGGGGAAACUUUGAGAUGGCCUUGCAAAGGGUAUGGUAAUAAGCUGACGGACAUGGUCCUAACCACGCAGCCAAGUCCUAAGUCAACAGAUCUUCUGUUGAUAUGGAUGCAGUUCACAGACUAAAUGUCGGUCGGGGAAGAUGUAUUCUUCUCAUAAGAUAUAGUCGGACCUCUCCUUAAUGGGAGCUAGCGGAUGAAGUGAUGCAACACUGGAGCCGCUGGGAACUAAUUUGUAUGCGAAAGUAUAUUGAUUAGUUUUGGAGUACUCGUGGUCG
The method, boiled down: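 Fitness was computed with DiMSum as the error-weighted combination of replicate fold changes, kanamycin versus none, each normalised to wild type. The library randomised all eight intron nucleotides of the P1ex region, with the intron placed in the knt kanamycin-resistance gene on pET-22b(+) in E. coli BL21(DE3). Six replicate transformations were grown overnight at 37°C or 30°C on LB agar with or without 25 μg/mL kanamycin, plus 100 μg/mL carbenicillin, 50 μM IPTG and 0.2% rhamnose. Pooled colonies were amplicon-sequenced on an Illumina HiSeq 2500.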

± gives the uncertainty stated by the source.

As for GGUCAGCAAUAUUACGACCA, the “self-splicing fitness (ln)” value (30 °C) is -0.982 ± 0.16 and the “self-splicing fitness (ln)” value (37 °C) is -0.657 ± 0.23.

As to AAAAAGCAAUAUUACGAUUA, the “self-splicing fitness (ln)” value is -0.462 ± 0.067 (30 °C) and 0.23 ± 0.081 (37 °C). For the sequence AGUGAGCAAUAUUACGAUGU, the “self-splicing fitness (ln)” value runs as follows: (30 °C) -3.64 ± 0.3; (37 °C) -2.51 ± 0.25. On to ACUCAGCAAUAUUACGCGGA, for which the “self-splicing fitness (ln)” value (30 °C) is -2.79 ± 0.16 and the “self-splicing fitness (ln)” value (37 °C) is -3.35 ± 0.27. Take CAUGAGCAAUAUUACGAGUC: the “self-splicing fitness (ln)” value (30 °C) is -4.56 ± 0.28 and the “self-splicing fitness (ln)” value (37 °C) is -3.27 ± 0.22. In the same order, the values of UCUCAGCAAUAUUACGAGGG are -2.87 ± 0.11 and -1.31 ± 0.12.

For the sequence GUCCAGCAAUAUUACGAGAU, the “self-splicing fitness (ln)” value (30 °C) was -2.92 ± 0.13 and the “self-splicing fitness (ln)” value (37 °C) is -1.32 ± 0.11.

Consider AGUCAGCAAUAUUACGAGUU, for which the “self-splicing fitness (ln)” value by setting is: (30 °C) -1.9 ± 0.092; (37 °C) -0.799 ± 0.077.

For GCUAAGCAAUAUUACGAGGG, the “self-splicing fitness (ln)” value reads like this: (30 °C) -2.18 ± 0.14; (37 °C) -1.64 ± 0.16. Turning to AAACAGCAAUAUUACGGUCU, the “self-splicing fitness (ln)” value is -0.15 ± 0.059 (30 °C) and -0.161 ± 0.064 (37 °C). For CAGAAGCAAUAUUACGUCCG, in that order: 0.0183 ± 0.11 and -0.0354 ± 0.13. For GCUAAGCAAUAUUACGACUU, in that order: -0.326 ± 0.09 and -0.0273 ± 0.098.

Take GGGAAGCAAUAUUACGCGUU: the “self-splicing fitness (ln)” value (30 °C) was -2.67 ± 0.24 and the “self-splicing fitness (ln)” value (37 °C) was -1.49 ± 0.2. Consider GUUGAGCAAUAUUACGUCAA, for which the “self-splicing fitness (ln)” value (30 °C) was -2.76 ± 0.28. UGGAAGCAAUAUUACGAGCA: the “self-splicing fitness (ln)” value is, setting by setting: (30 °C) -0.526 ± 0.082; (37 °C) 0.193 ± 0.1. For CAUGAGCAAUAUUACGCCUU, in that order: -3.02 ± 0.26 and -1.86 ± 0.24. Take CUCUAGCAAUAUUACGACAA: the “self-splicing fitness (ln)” value (37 °C) was -2.35 ± 0.28.

Consider GUGAAGCAAUAUUACGACGG, for which the “self-splicing fitness (ln)” value is -0.531 ± 0.12 (30 °C) and -0.418 ± 0.23 (37 °C). In the same order, the values of AAGGAGCAAUAUUACGUUUA are -2.95 ± 0.24 and -1.66 ± 0.16. In the same order, the values of AGCAAGCAAUAUUACGUGAU are -2.1 ± 0.072 and -1.32 ± 0.08. As to GUCGAGCAAUAUUACGGUUC, the “self-splicing fitness (ln)” value is -2.27 ± 0.14 (30 °C) and -1.73 ± 0.17 (37 °C). For GCUAAGCAAUAUUACGAUCA, in that order: -1.29 ± 0.11 and -0.823 ± 0.093. Take UACUAGCAAUAUUACGAAAG: the “self-splicing fitness (ln)” value runs as follows: (30 °C) -2.94 ± 0.11; (37 °C) -1.93 ± 0.13.

On to UAGCAGCAAUAUUACGGCAG, for which the “self-splicing fitness (ln)” value is -0.659 ± 0.1 (30 °C) and 0.546 ± 0.13 (37 °C). On to UGAAAGCAAUAUUACGCGUG, for which the “self-splicing fitness (ln)” value by setting is: (30 °C) -0.951 ± 0.049; (37 °C) -0.284 ± 0.064. Regarding CUUCAGCAAUAUUACGGGAC, the “self-splicing fitness (ln)” value (30 °C) was -2.8 ± 0.11 and the “self-splicing fitness (ln)” value (37 °C) was -0.836 ± 0.12.

As for GUGAAGCAAUAUUACGGAGA, the “self-splicing fitness (ln)” value by setting is: (30 °C) -2.03 ± 0.32; (37 °C) -1.19 ± 0.47.

With GCAUAGCAAUAUUACGGUCG, the “self-splicing fitness (ln)” value (30 °C) was -1.77 ± 0.12 and the “self-splicing fitness (ln)” value (37 °C) was -1.12 ± 0.12. In the same order, the values of AGCCAGCAAUAUUACGUCCG are -3.12 ± 0.24 and -1.71 ± 0.29. For CCAUAGCAAUAUUACGCGAU, in that order: -2.56 ± 0.27 and -2.91 ± 0.43.

As for GACAAGCAAUAUUACGUAAU, the “self-splicing fitness (ln)” value was -2.61 ± 0.088 (30 °C) and -1.16 ± 0.081 (37 °C). For CAGGAGCAAUAUUACGAUGG, in that order: -0.317 ± 0.091 and 0.171 ± 0.13.

For GUAAAGCAAUAUUACGGCAG, the “self-splicing fitness (ln)” value (30 °C) is -1.5 ± 0.15 and the “self-splicing fitness (ln)” value (37 °C) was -2.25 ± 0.3. On to GGGAAGCAAUAUUACGGCGA, for which the “self-splicing fitness (ln)” value is, setting by setting: (30 °C) -0.443 ± 0.12; (37 °C) 0.0664 ± 0.12. In the same order, the values of GUCAAGCAAUAUUACGGGAG are -3.23 ± 0.1 and -1.07 ± 0.081. Consider GGAUAGCAAUAUUACGGUUG, for which the “self-splicing fitness (ln)” value is, setting by setting: (30 °C) -3.53 ± 0.26; (37 °C) -0.953 ± 0.18. In the same order, the values of UGGAAGCAAUAUUACGUCGC are -3.16 ± 0.45 and -2.39 ± 0.35. Take UCAGAGCAAUAUUACGUCAC: the “self-splicing fitness (ln)” value (30 °C) is -2.51 ± 0.18. Take GUUAAGCAAUAUUACGCCGU: the “self-splicing fitness (ln)” value reads like this: (30 °C) -1.42 ± 0.19; (37 °C) -1.39 ± 0.23.

Turning to CUCUAGCAAUAUUACGGCAA, where the note is “30 °C”, the “self-splicing fitness (ln)” value is -2.38 ± 0.2. UGUUAGCAAUAUUACGCAUC: the “self-splicing fitness (ln)” value (37 °C) was -1.93 ± 0.27. With AAACAGCAAUAUUACGGUCG, the “self-splicing fitness (ln)” value by setting is: (30 °C) -1.07 ± 0.059; (37 °C) -0.526 ± 0.082.

Turning to AGUCAGCAAUAUUACGCGAA, the “self-splicing fitness (ln)” value by setting is: (30 °C) -1.21 ± 0.17; (37 °C) -0.704 ± 0.15. In the same order, the values of AUGUAGCAAUAUUACGACUG are -0.943 ± 0.1 and -0.461 ± 0.1.

Regarding GACAAGCAAUAUUACGCCUA, the “self-splicing fitness (ln)” value reads like this: (30 °C) -0.964 ± 0.093; (37 °C) -0.0625 ± 0.088. Take GUGUAGCAAUAUUACGGAAA: the “self-splicing fitness (ln)” value (30 °C) is -3 ± 0.28 and the “self-splicing fitness (ln)” value (37 °C) was -1.42 ± 0.27. For CCUAAGCAAUAUUACGUUGC, in that order: -3.6 ± 0.24 and -3.42 ± 0.34. Consider GUGUAGCAAUAUUACGAUUC, for which the “self-splicing fitness (ln)” value is, setting by setting: (30 °C) 0.325 ± 0.094; (37 °C) -0.738 ± 0.088. Take CAAGAGCAAUAUUACGUUGU: the “self-splicing fitness (ln)” value (30 °C) is -5.35 ± 0.45 and the “self-splicing fitness (ln)” value (37 °C) was -2.26 ± 0.22. In the same order, the values of UUUCAGCAAUAUUACGAUAC are -2.17 ± 0.25 and -2.02 ± 0.26. Turning to GUAGAGCAAUAUUACGACCG, the “self-splicing fitness (ln)” value is -1.28 ± 0.2 (30 °C) and -1.98 ± 0.46 (37 °C). In the same order, the values of CACCAGCAAUAUUACGAGAG are -0.95 ± 0.054 and -0.673 ± 0.069. For AGCUAGCAAUAUUACGUAGG, in that order: -3.29 ± 0.13 and -1.27 ± 0.13. As to GGUCAGCAAUAUUACGGCUU, the “self-splicing fitness (ln)” value (30 °C) was -1.18 ± 0.087 and the “self-splicing fitness (ln)” value (37 °C) was -0.0465 ± 0.12.

On to AUGUAGCAAUAUUACGUCCC, for which the “self-splicing fitness (ln)” value was -1.73 ± 0.17 (30 °C) and -1.02 ± 0.27 (37 °C). In the same order, the values of CCUAAGCAAUAUUACGUACG are -1.94 ± 0.13 and -0.851 ± 0.13. In the same order, the values of ACACAGCAAUAUUACGUGCA are -0.241 ± 0.051 and -0.395 ± 0.063. In the same order, the values of CGGGAGCAAUAUUACGGGCU are -3.85 ± 0.34 and -2.5 ± 0.41. With GCUUAGCAAUAUUACGAGUA, the “self-splicing fitness (ln)” value is, setting by setting: (30 °C) -1.37 ± 0.16; (37 °C) -0.0404 ± 0.14. For CCGUAGCAAUAUUACGCGGG, in that order: -4.02 ± 0.33 and -3.61 ± 0.39. On to AAAAAGCAAUAUUACGUCGA, for which the “self-splicing fitness (ln)” value reads like this: (30 °C) -1.05 ± 0.067; (37 °C) -0.415 ± 0.082. For GUCCAGCAAUAUUACGGUUG, in that order: -1 ± 0.067 and -0.214 ± 0.091. In the case of AUUCAGCAAUAUUACGGUUG, the “self-splicing fitness (ln)” value (30 °C) was -2.89 ± 0.11 and the “self-splicing fitness (ln)” value (37 °C) is -0.981 ± 0.11. GUCGAGCAAUAUUACGUACU: the “self-splicing fitness (ln)” value by setting is: (30 °C) -2.83 ± 0.29; (37 °C) -0.966 ± 0.21. For AAGCAGCAAUAUUACGCGAG, in that order: -0.949 ± 0.095 and -0.986 ± 0.11. In the same order, the values of UAGCAGCAAUAUUACGCAUA are -1.09 ± 0.07 and -0.101 ± 0.079. For the sequence AAAUAGCAAUAUUACGAUCU, the “self-splicing fitness (ln)” value was -0.0304 ± 0.11 (30 °C) and 0.867 ± 0.13 (37 °C).

Take UAAGAGCAAUAUUACGUAAU: the “self-splicing fitness (ln)” value was -3.14 ± 0.15 (30 °C) and -3.17 ± 0.29 (37 °C). In the same order, the values of CCUAAGCAAUAUUACGUCGG are -2.3 ± 0.29 and -1.51 ± 0.24.

AGCCAGCAAUAUUACGUUGC: the “self-splicing fitness (ln)” value runs as follows: (30 °C) -2.87 ± 0.18; (37 °C) -3.28 ± 0.27. For CGCUAGCAAUAUUACGGGAG, in that order: -2.79 ± 0.1 and -1.43 ± 0.082.

In the case of CCGUAGCAAUAUUACGGGUU, the “self-splicing fitness (ln)” value was -3.9 ± 0.17 (30 °C) and -1.57 ± 0.16 (37 °C). Consider UCUGAGCAAUAUUACGAUCG, for which the “self-splicing fitness (ln)” value (37 °C) was -0.514 ± 0.41.

Consider CUAGAGCAAUAUUACGGAUG, for which the “self-splicing fitness (ln)” value by setting is: (30 °C) -0.4 ± 0.095; (37 °C) 0.311 ± 0.11. For GGGCAGCAAUAUUACGUGAC, in that order: -0.997 ± 0.13 and -1.03 ± 0.21. In the same order, the values of CACCAGCAAUAUUACGUCUU are -3.59 ± 0.12 and -2.64 ± 0.15. For AGCAAGCAAUAUUACGUUUC, in that order: -4.44 ± 0.25 and -2.09 ± 0.15.
